Assays:
MAGEA3 peptide no 8 = target: T1, MAGEA3 peptide no 8; assay: peptide ELISA (coated 20mer)
T1 construct: also called MAGEA3 aa 71-90
T1 peptide: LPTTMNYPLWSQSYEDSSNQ
Experimental: (§1) 20mer peptides spanning the entire MAGEA3 protein with 10 aa overlaps shared by each adjacent peptide (Peptides&Elephants, Nuthetal, Germany) were used to coat Maxisorp ELISA plates (Nunc, Rochester, N.Y.). As control a 20mer peptide representing amino acids 40-21 from the NY-ESO-1 protein was used (rev). The numbering of amino acids of MAGEA3 is based on SEQ ID No:41.
(§2) Human recombinant antibody was used at a concentration of 1 μg/ml. Bound human antibody was detected using horseradish peroxidase-conjugated goat anti-human IgG Fc-gamma specific antibodies (Jackson ImmunoResearch, Europe Ltd., Cambridgeshire, UK).

MAGEA3 peptide no 23 [1] = target: T2, MAGEA3 peptide no 23; assay: peptide ELISA (coated 20mer)
T2 construct: also called MAGEA3 aa 221-240
T2 peptide: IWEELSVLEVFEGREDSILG
Experimental: as §1, §2

MAGEA3 peptide no 7 [2] = target: T3, MAGEA3 peptide no 7; assay: peptide ELISA (coated 20mer)
T3 construct: also called MAGEA3 aa 61-80
T3 peptide: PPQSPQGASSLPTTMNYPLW
Experimental: as §1, §2

MAGEA3 peptide no 2 = target: T4, MAGEA3 peptide no 2; assay: peptide ELISA (coated 20mer)
T4 construct: also called MAGEA3 aa 11-30
T4 peptide: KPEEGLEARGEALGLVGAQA
Experimental: as §1, §2

MAGEA3 peptide no 9 = target: T5, MAGEA3 peptide no 9; assay: peptide ELISA (coated 20mer)
T5 construct: also called MAGEA3 aa 81-100
T5 peptide: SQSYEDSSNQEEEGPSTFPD
Experimental: as §1, §2

MAGEA3 peptide no 15 [3] = target: T6, MAGEA3 peptide no 15; assay: peptide ELISA (coated 20mer)
T6 construct: also called MAGEA3 aa 141-160
T6 peptide: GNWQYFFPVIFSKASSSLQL
Experimental: as §1, §2

MAGEA3 peptide no 17 = target: T7, MAGEA3 peptide no 17; assay: peptide ELISA (coated 20mer)
T7 construct: also called MAGEA3 aa 161-180
T7 peptide: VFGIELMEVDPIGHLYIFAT
Experimental: as §1, §2

MAGEA3 peptide no 31 = target: T8, MAGEA3 peptide no 31; assay: peptide ELISA (coated 20mer)
T8 construct: also called MAGEA3 aa 295-314
T8 peptide: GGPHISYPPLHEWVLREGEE
Experimental: as §1, §2

MAGEA3 peptide no 20 = target: T9, MAGEA3 peptide no 20; assay: peptide ELISA (coated 20mer)
T9 construct: also called MAGEA3 aa 191-210
T9 peptide: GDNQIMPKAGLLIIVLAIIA
Experimental: as §1, §2

MAGEA3 peptide no 16 [4] = target: T10, MAGEA3 peptide no 16; assay: peptide ELISA (coated 20mer)
T10 construct: also called MAGEA3 aa 151-170
T10 peptide: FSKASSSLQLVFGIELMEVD
Experimental: as §1, §2

MAGEA3 peptide no 25 = target: T11, MAGEA3 peptide no 25; assay: peptide ELISA (coated 20mer)
T11 construct: also called MAGEA3 aa 241-260
T11 peptide: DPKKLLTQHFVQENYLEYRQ
Experimental: as §1, §2

MAGEA3 peptide no 24 = target: T12, MAGEA3 peptide no 24; assay: peptide ELISA (coated 20mer)
T12 construct: also called MAGEA3 aa 231-250
T12 peptide: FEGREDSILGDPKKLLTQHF
Experimental: as §1, §2

MAGEA3 peptide no 26 = target: T13, MAGEA3 peptide no 26; assay: peptide ELISA (coated 20mer)
T13 construct: also called MAGEA3 aa 251-270
T13 peptide: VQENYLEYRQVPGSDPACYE
Experimental: as §1, §2

MAGEA3 peptide no 6 = target: T14, MAGEA3 peptide no 6; assay: peptide ELISA (coated 20mer)
T14 construct: also called MAGEA3 aa 51-70
T14 peptide: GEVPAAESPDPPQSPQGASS
Experimental: as §1, §2

MAGEA3 peptide no 22 = target: T15, MAGEA3 peptide no 22; assay: peptide ELISA (coated 20mer)
T15 construct: also called MAGEA3 aa 211-230
T15 peptide: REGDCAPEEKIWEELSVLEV
Experimental: as §1, §2

MAGEA3 peptide no 30 = target: T16, MAGEA3 peptide no 30; assay: peptide ELISA (coated 20mer)
T16 construct: also called MAGEA3 aa 291-310
T16 peptide: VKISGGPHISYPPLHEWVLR
Experimental: as §1, §2

MAGEA3 peptide no 21 [5] = target: T17, MAGEA3 peptide no 21; assay: peptide ELISA (coated 20mer)
T17 construct: also called MAGEA3 aa 201-220
T17 peptide: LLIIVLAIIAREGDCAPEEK
Experimental: as §1, §2

MAGEA3 peptide no 27 = target: T18, MAGEA3 peptide no 27; assay: peptide ELISA (coated 20mer)
T18 construct: also called MAGEA3 aa 261-280
T18 peptide: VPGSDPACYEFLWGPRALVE
Experimental: as §1, §2

MAGEA3 peptide no 19 [6] = target: T19, MAGEA3 peptide no 19; assay: peptide ELISA (coated 20mer)
T19 construct: also called MAGEA3 aa 181-200
T19 peptide: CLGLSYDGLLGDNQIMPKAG
Experimental: as §1, §2

MAGEA3 peptide no 3 = target: T20, MAGEA3 peptide no 3; assay: peptide ELISA (coated 20mer)
T20 construct: also called MAGEA3 aa 21-40
T20 peptide: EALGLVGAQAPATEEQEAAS
Experimental: as §1, §2

MAGEA3 peptide no 11 = target: T21, MAGEA3 peptide no 11; assay: peptide ELISA (coated 20mer)
T21 construct: also called MAGEA3 aa 101-120
T21 peptide: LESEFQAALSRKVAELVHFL
Experimental: as §1, §2

MAGEA3 peptide no 23 [7] = target: T2, MAGEA3 peptide no 23; assay: peptide ELISA (coated 20mer) [Figure 1]
Experimental: as §1, §2

MAGEA3 peptide no 7 [8] = target: T3, MAGEA3 peptide no 7; assay: peptide ELISA (coated 20mer) [Figure 1]
Experimental: as §1, §2

MAGEA3 peptide no 15 [9] = target: T6, MAGEA3 peptide no 15; assay: peptide ELISA (coated 20mer) [Figure 1]
Experimental: as §1, §2

MAGEA3 peptide no 16 [10] = target: T10, MAGEA3 peptide no 16; assay: peptide ELISA (coated 20mer) [Figure 1]
Experimental: as §1, §2

MAGEA3 peptide no 14 = target: T22, MAGEA3 peptide no 14; assay: peptide ELISA (coated 20mer) [Figure 1]
T22 construct: also called MAGEA3 aa 131-150
T22 peptide: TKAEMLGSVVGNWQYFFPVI
Experimental: as §1, §2

MAGEA3 peptide no 21 [11] = target: T17, MAGEA3 peptide no 21; assay: peptide ELISA (coated 20mer) [Figure 1]
Experimental: as §1, §2

MAGEA3 peptide no 29 = target: T23, MAGEA3 peptide no 29; assay: peptide ELISA (coated 20mer) [Figure 1]
T23 construct: also called MAGEA3 aa 281-300
T23 peptide: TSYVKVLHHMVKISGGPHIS
Experimental: as §1, §2

MAGEA3 peptide no 19 [12] = target: T19, MAGEA3 peptide no 19; assay: peptide ELISA (coated 20mer) [Figure 1]
Experimental: as §1, §2

Measured: binding result

B1: 32H2 (antibody, V domains shown)
VH: QVQLVESGGGVVQPGRSLRLSCAASGFTFSSNAMHWVRQAPGKGLEWVAVISHDGSNKYYADSVKGRFTISRDNSKNTLYLQMNSLRAEDTAVYYCARDGSGSYFNLDYWGQGTLVTVSS
VL: QSALTQPASVSGSPGQSITISCTGTSSDVGGYNYVSWYQQHPGKAPKLMIYEVSNRPSGVSNRFSGSKSGNTASLTISGLQAEDEADYYCSSYTSSSTLVFGTGTKVTVL
notes: Patient-derived human antibody made recombinantly; also called human monoclonal antibody 32H2
no binding (tested: 1 µg/ml): MAGEA3 peptide no 8 | MAGEA3 peptide no 23 [1] | MAGEA3 peptide no 7 [2] | MAGEA3 peptide no 2 | MAGEA3 peptide no 9 | MAGEA3 peptide no 15 [3] | MAGEA3 peptide no 17 | MAGEA3 peptide no 31 | MAGEA3 peptide no 20 | MAGEA3 peptide no 16 [4] | MAGEA3 peptide no 25 | MAGEA3 peptide no 24 | MAGEA3 peptide no 26 | MAGEA3 peptide no 6 | MAGEA3 peptide no 22 | MAGEA3 peptide no 30 | MAGEA3 peptide no 21 [5] | MAGEA3 peptide no 27 | MAGEA3 peptide no 19 [6] | MAGEA3 peptide no 3 | MAGEA3 peptide no 11

B2: 102G10 (antibody, V domains shown)
VH: EVQLVESGGGLVKPGGSLRLSCAASGFTFSGNSMNWVRQAPGKGLEWVSSISSSSGYIYYADSVKGRFTVSRDNAKNSLYLQMNSLRAEDTAVYYCATWPVTTARVGYWGQGTLVTVSS
VL: QSVLTQPPSASGTPGQRVTISCSGSSSNIGSNYVYWHQQLPGTAPKLLIYRHDQRPSGVPDRFSGSKSGTSASLAISGLRSEDEADYYCAAWDDSLSAWVFGGGTKLTVL
notes: Patient-derived human antibody made recombinantly; also called human monoclonal antibody 102G10
no binding (tested: 1 µg/ml): MAGEA3 peptide no 23 [7] | MAGEA3 peptide no 7 [8] | MAGEA3 peptide no 15 [9] | MAGEA3 peptide no 16 [10] | MAGEA3 peptide no 14 | MAGEA3 peptide no 21 [11] | MAGEA3 peptide no 29 | MAGEA3 peptide no 19 [12]

B3: 34G9 (antibody, V domains shown)
VH: EVQLEESGGDLVQPGGSLRLSCAASGFTFSHYWMHWVRQAPGKGLVWVSRINSDGSSTSYADSVKGRFTISRDNAKNTLYLQMNSLRAEDTAVYYCARIGSDGYNYDFWGQGTLVTVSS
VL: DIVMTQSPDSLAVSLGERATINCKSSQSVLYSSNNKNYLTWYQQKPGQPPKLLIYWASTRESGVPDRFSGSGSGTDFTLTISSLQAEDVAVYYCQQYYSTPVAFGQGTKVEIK
notes: Patient-derived human antibody made recombinantly; also called human monoclonal antibody 34G9
no binding (tested: 1 µg/ml): MAGEA3 peptide no 23 [7] | MAGEA3 peptide no 7 [8] | MAGEA3 peptide no 15 [9] | MAGEA3 peptide no 16 [10] | MAGEA3 peptide no 14 | MAGEA3 peptide no 21 [11] | MAGEA3 peptide no 29 | MAGEA3 peptide no 19 [12]

— patent US20140186363A1 (UNIVERSITY OF ZURICH, published 2014)
